Test results as given in patent publication US20200055920A1 (published 2020).
Where two headings read alike, the source gives them in different places.

T1: Activin A (UniProt P08476 311-426)
T1 construct: also called βAβA
T1 sequence (looked up): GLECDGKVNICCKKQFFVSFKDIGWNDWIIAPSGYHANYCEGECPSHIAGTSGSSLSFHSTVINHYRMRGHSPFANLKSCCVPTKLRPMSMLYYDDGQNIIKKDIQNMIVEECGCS

T2: GDF3 (UniProt Q9NR23 251-364)
T2 construct: also called VGR2
T2 sequence (looked up): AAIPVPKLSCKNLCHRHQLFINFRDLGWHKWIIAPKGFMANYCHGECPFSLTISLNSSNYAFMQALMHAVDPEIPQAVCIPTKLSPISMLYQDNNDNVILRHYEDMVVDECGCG

T3: GDF8 (UniProt O14793 267-375)
T3 construct: also called myostatin; growth and differentiation factor-8
T3 sequence (looked up): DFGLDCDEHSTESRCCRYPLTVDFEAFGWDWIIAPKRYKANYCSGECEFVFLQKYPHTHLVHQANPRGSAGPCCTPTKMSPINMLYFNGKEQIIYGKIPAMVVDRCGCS

T4: Activin B (UniProt P09529 293-407)
T4 construct: also called βBβB
T4 sequence (looked up): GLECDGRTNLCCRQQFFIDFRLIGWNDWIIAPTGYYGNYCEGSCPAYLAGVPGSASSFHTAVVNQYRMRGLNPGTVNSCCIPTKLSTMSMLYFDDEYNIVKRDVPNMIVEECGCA

T5: GDF11 (UniProt O95390 299-407)
T5 construct: also called BMP11
T5 sequence (looked up): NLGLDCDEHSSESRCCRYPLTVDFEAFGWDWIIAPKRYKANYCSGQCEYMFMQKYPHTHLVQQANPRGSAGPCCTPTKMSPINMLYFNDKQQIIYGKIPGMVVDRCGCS

T6: BMP9 (UniProt Q9UK05 320-429)
T6 construct: also called GDF2
T6 sequence (looked up): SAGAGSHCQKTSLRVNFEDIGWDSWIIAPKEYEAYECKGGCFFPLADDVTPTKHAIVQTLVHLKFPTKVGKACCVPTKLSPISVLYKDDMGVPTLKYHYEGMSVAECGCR

T7: BMP6 (UniProt P22004 382-513, limits assumed)
T7 sequence (looked up): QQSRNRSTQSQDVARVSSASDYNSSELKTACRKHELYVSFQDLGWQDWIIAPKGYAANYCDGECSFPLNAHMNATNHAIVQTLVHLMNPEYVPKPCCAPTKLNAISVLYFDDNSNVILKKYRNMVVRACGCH

T8: BMP10 (UniProt O95393 317-424)
T8 sequence (looked up): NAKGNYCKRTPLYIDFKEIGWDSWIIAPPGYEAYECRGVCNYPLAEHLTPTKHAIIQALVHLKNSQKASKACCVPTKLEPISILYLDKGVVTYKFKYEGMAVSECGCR

T9: GDF6 (UniProt Q6KF10 336-455, limits assumed)
T9 construct: also called BMP13
T9 sequence (looked up): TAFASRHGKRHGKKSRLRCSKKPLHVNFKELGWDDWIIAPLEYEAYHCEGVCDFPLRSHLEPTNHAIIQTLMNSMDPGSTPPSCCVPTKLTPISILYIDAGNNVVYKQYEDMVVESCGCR

T10: BMP7 (UniProt P18075 293-431)
T10 construct: also called osteogenic protein-1; OP-1
T10 sequence (looked up): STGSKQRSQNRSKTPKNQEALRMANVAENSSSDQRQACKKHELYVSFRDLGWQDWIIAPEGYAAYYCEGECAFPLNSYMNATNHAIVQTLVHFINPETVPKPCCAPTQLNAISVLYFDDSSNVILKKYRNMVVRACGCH

T11: BMP15 (UniProt O95972 268-392)
T11 construct: also called GDF9b
T11 sequence (looked up): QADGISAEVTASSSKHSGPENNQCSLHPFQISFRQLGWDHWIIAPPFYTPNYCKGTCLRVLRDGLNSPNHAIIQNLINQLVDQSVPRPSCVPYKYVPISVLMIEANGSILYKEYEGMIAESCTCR

T12: TGFβ2 (UniProt P61812 303-414)
T12 construct: also called TGF-beta2
T12 sequence (looked up): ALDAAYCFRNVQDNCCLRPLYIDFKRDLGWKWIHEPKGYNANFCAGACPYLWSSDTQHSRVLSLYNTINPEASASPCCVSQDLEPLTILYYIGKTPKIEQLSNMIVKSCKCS

T13: TGFβ3 (UniProt P10600 301-412)
T13 construct: also called TGF-beta3
T13 sequence (looked up): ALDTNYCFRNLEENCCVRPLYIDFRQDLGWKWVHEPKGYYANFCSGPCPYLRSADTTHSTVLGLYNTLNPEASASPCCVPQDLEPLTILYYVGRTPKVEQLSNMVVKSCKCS


Legend:
Assay in all cases: Biacore SPR; receptor-Fc captured by anti-Fc antibody, ligand injected
Activin A = target: T1, Activin A
Protocol: (§1) Ligands were injected and allowed to flow over the captured receptor protein.

GDF3 = target: T2, GDF3
Protocol: as §1

GDF8 = target: T3, GDF8
Protocol: as §1

Activin B = target: T4, Activin B
Protocol: as §1

GDF11 = target: T5, GDF11
Protocol: as §1

BMP9 = target: T6, BMP9
Protocol: as §1

BMP6 [1] = target: T7, BMP6
BMP10 [2] = target: T8, BMP10
GDF6 = target: T9, GDF6
Protocol: as §1

BMP2 = BMP2 (UniProt P12643 283-396)
BMP7 = target: T10, BMP7
BMP15 = target: T11, BMP15
Protocol: A Biacore™-based binding assay was used to compare ligand binding selectivity of the single-arm BMPRII-Fc heterodimeric complex described above with that of an BMPRII-Fc homodimeric complex. The single-arm BMPRII-Fc and homodimeric BMPRII-Fc were independently captured onto the system using an anti-Fc antibody. Ligands were injected and allowed to flow over the captured receptor protein.

TGFβ2 = target: T12, TGFβ2
Protocol: as §1

TGFβ1 = target: T14, TGFβ1 (UniProt P01137 279-390)
T14 construct: also called TGF-beta1
Protocol: as §1

TGFβ3 = target: T13, TGFβ3
Protocol: as §1

BMP6 [3] = target: T7, BMP6; remark: listed apart in the source
Protocol: as §1

BMP10 [4] = target: T8, BMP10; remark: listed apart in the source
Protocol: as §1

T14 sequence (P01137 279-390 limits assumed): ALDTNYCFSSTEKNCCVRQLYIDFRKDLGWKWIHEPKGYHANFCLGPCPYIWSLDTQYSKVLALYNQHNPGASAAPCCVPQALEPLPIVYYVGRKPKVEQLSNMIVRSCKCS
BMP2, sequence (P12643 283-396 limits assumed): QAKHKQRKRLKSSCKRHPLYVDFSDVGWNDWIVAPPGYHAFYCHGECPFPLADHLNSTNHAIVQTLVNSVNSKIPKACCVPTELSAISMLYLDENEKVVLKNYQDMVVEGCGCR

Row | Molecule | Kd (Activin A) | koff (Activin A) | kon (Activin A) | Kd (GDF3) | koff (GDF3) | kon (GDF3) | Kd (GDF8) | koff (GDF8) | kon (GDF8) | Kd (Activin B) | koff (Activin B) | kon (Activin B) | Kd (GDF11) | koff (GDF11) | kon (GDF11) | Kd (BMP9) | koff (BMP9) | kon (BMP9) | Kd (BMP6 [1]) | Kd (BMP10 [2]) | other results
1 | ActRIIB-Fc homodimer (Fc fusion) | 0.019 nM | 0.00023 s⁻¹ | 1.2e+07 M⁻¹ s⁻¹ | 1.5 nM | 0.0022 s⁻¹ | 1.4e+06 M⁻¹ s⁻¹ | 0.28 nM | 0.00023 s⁻¹ | 830000 M⁻¹ s⁻¹ | 0.02 nM | 0.0001 s⁻¹ | 5.1e+06 M⁻¹ s⁻¹ | 0.002 nM | 0.00011 s⁻¹ | 5e+07 M⁻¹ s⁻¹ | 0.078 nM | 0.0011 s⁻¹ | 1.4e+07 M⁻¹ s⁻¹ | 0.21 nM | 0.011 nM | koff (BMP6 [1]): 0.0068 s⁻¹; kon (BMP6 [1]): 3.2e+07 M⁻¹ s⁻¹; koff (BMP10 [2]): 0.00026 s⁻¹; kon (BMP10 [2]): 2.3e+07 M⁻¹ s⁻¹
2 | BMPRII-Fc homodimer (Fc fusion) | – | – | – | – | – | – | – | – | – | 3.8 nM | 0.075 s⁻¹ | 2e+07 M⁻¹ s⁻¹ | – | – | – | 2.1 nM | 0.026 s⁻¹ | 1.2e+07 M⁻¹ s⁻¹ | > 8.9 nM | 0.098 nM | Kd (GDF6): > 88 nM; Kd (BMP2): > 2000 nM; Kd (BMP7): > 38 nM; koff (BMP10 [2]): 0.0025 s⁻¹; kon (BMP10 [2]): 2.6e+07 M⁻¹ s⁻¹; Kd (BMP15): 0.28 nM; koff (BMP15): 0.0028 s⁻¹; kon (BMP15): 9.9e+06 M⁻¹ s⁻¹
3 | TGFβRII-Fc homodimer (Fc fusion) | – | – | – | – | – | – | – | – | – | – | – | – | – | – | – | – | – | – | – | – | Kd (TGFβ2): > 44 nM; Kd (TGFβ1): 0.025 nM; koff (TGFβ1): 0.0011 s⁻¹; kon (TGFβ1): 4.2e+07 M⁻¹ s⁻¹; Kd (TGFβ3): 0.099 nM; koff (TGFβ3): 0.0059 s⁻¹; kon (TGFβ3): 5.9e+07 M⁻¹ s⁻¹
4 | single-arm ActRIIB-Fc heterodimeric complex (Fc fusion, The C-terminal lysine may optionally be removed; also called ActRIIB-Fc:Fc heterodimer; single-arm ActRIIB-Fc:Fc) chain 1: GRGEAETRECIYYNANWELERTNQSGLERCEGEQDKRLHCYASWRNSSGTIELVKKGCWLDDFNCYDRQECVATEENPQVYFCCCEGNFCNERFTHLPEAGGPEVTYEPPPTAPTGGGTHTCPPCPAPELLGGPSVFLFPPKPKDTLMISRTPEVTCVVVDVSHEDPEVKFNWYVDGVEVHNAKTKPREEQYNSTYRVVSVLTVLHQDWLNGKEYKCKVSNKALPAPIEKTISKAKGQPREPQVYTLPPSRKEMTKNQVSLTCLVKGFYPSDIAVEWESNGQPENNYKTTPPVLKSDGSFFLYSKLTVDKSRWQQGNVFSCSVMHEALHNHYTQKSLSLSPGK chain 2: SNTKVDKRVTGGGTHTCPPCPAPELLGGPSVFLFPPKPKDTLMISRTPEVTCVVVDVSHEDPEVKFNWYVDGVEVHNAKTKPREEQYNSTYRVVSVLTVLHQDWLNGKEYKCKVSNKALPAPIEKTISKAKGQPREPQVYTLPPSREEMTKNQVSLTCLVKGFYPSDIAVEWESNGQPENNYDTTPPVLDSDGSFFLYSDLTVDKSRWQQGNVFSCSVMHEALHNHYTQKSLSLSPGK | 0.099 nM | 0.003 s⁻¹ | 3e+07 M⁻¹ s⁻¹ | 12 nM | 0.013 s⁻¹ | 1.1e+06 M⁻¹ s⁻¹ | 0.29 nM | 0.001 s⁻¹ | 3.5e+06 M⁻¹ s⁻¹ | 0.12 nM | 0.00042 s⁻¹ | 3.5e+06 M⁻¹ s⁻¹ | 0.02 nM | 0.00072 s⁻¹ | 3.6e+07 M⁻¹ s⁻¹ | – | – | – | – | – | Kd (BMP6 [3]): 0.69 nM; koff (BMP6 [3]): 0.029 s⁻¹; kon (BMP6 [3]): 4.2e+07 M⁻¹ s⁻¹; Kd (BMP10 [4]): 0.12 nM; koff (BMP10 [4]): 0.0097 s⁻¹; kon (BMP10 [4]): 8e+07 M⁻¹ s⁻¹; binding result (BMP9): no binding
